T1: monomeric form of PCNA2 (PCNA2m, R75A-F111E-R143A) (Thermococcus kodakarensis, UniProt Q5JFD3 1-253, R75A | F111E | R143A)
T1 sequence: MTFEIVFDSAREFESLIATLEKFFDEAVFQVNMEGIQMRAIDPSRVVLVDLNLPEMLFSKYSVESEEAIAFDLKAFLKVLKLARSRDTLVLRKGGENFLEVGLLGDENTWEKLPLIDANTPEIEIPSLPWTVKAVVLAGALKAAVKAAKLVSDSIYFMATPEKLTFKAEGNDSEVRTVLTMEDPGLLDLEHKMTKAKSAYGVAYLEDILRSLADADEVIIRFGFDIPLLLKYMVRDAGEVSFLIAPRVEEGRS

B1: Thermococcus kodakarensis PCNA2 (TK0582) (natural protein)
chain: MTFEIVFDSAREFESLIATLEKFFDEAVFQVNMEGIQMRAIDPSRVVLVDLNLPEMLFSKYSVESEEAIAFDLKRFLKVLKLARSRDTLVLRKGGENFLEVGLLGDENTWFKLPLIDANTPEIEIPSLPWTVKAVVLAGALKRAVKAAKLVSDSIYFMATPEKLTFKAEGNDSEVRTVLTMEDPGLLDLEHKMTKAKSAYGVAYLEDILRSLADADEVIIRFGFDIPLLLKYMVRDAGEVSFLIAPRVEEGRS
B2: Thermococcus kodakarensis PCNA1 (TK0535) (natural protein, UniProt Q5JF32 1-249, looked up)
chain: MPFEVVFDGAKEFADLIATASNLIDEAAFKFTEEGISMRAMDPSRVVLIDLNLPESIFSKYEVEEPETIGINMDQFKKILKRGKAKDTLILRKGDENFLEITFEGTAKRTFRLPLIDVEELELELPELPFTAKVVLLGEVLKEGIKDASLVSDAIKFIAKENEFTMKAEGETNEVEIRLTLEDEGLLDLEVEEETKSAYGIRYLSDMVKGIGKADEVILRFGNEMPLQMEYMIRDEGRLTFLLAPRVEE

Assays:
[1] = target: the molecule itself; assay: SEC; Superdex-200 (HR10/30); 100 ug of each protein in 200 ul of 25 mM Tris-HCl pH 8.0, 200 mM NaCl, 0.5 mM EDTA, 10% glycerol; fractions on SDS-PAGE, Coomassie
[2] = target: B2; assay: crystal structure; low resolution X-ray structure of the complex, unpublished observation; conditions: both partners purified
[3] = target: T1, monomeric form of PCNA2 (PCNA2m, …); assay: SEC; Superdex-200 (HR10/30); 100 ug of each protein in 200 ul of 25 mM Tris-HCl pH 8.0, 200 mM NaCl, 0.5 mM EDTA, 10% glycerol; fractions on SDS-PAGE, Coomassie; conditions: both partners purified
[4] = target: B1; assay: HDX-MS; 15 uM protein; PCNA monomer:TIP monomer 1:1, equilibrated at 4 C for 16 h; 20 mM sodium phosphate, 500 mM NaCl, pH 7.6; exchange at 3 C, 30 s to 60 min; pepsin digestion; conditions: both partners purified

stoichiometry N [2] | binding result [3] | binding result [4] | Binder | stoichiometry N [1]
– | – | – | B1 | 3
1 TIP per PCNA monomer | binds | binds | Thermococcales inhibitor of PCNA (TIP), encoded by TK0808 (natural protein, Thermococcus kodakarensis, UniProt Q5JH72 1-64, looked up) MDRKLDEFIGDATPKKVSKEKPVRRKKRLKPTSLDSFLPEEHINYFRDLRIGSKKIRNAKIEEL | –
– | – | – | Methanothermobacter thermautotrophicus PCNA (mtPCNA) (natural protein, UniProt O27367 1-244, looked up) MFKAELNDPNILRTSFDAISSIVDEVQIQLSAEGLRLDALDRSHITYVHLELKAELFDEYVCDEPERINVDTEELMKVLKRAKANDRVILSTDEGNLIIQFEGEAVRTFKIRLIDIEYETPSPPEIEYENEFEVPFQLLKDSIADIDIFSDKITFRVDEDRFIASAEGEFGDAQIEYLHGERIDKPARSIYSLDKIKEMLKADKFSETAIINLGDDMPLKLTLKMASKEGELSFLLAPRIEAEE | 3
– | – | – | B2 | 3
